The values below come from the supplement of paper PMC9170038.

This series relates to MS2 coat protein. The experiment in a line: apparent KD of MS2 coat protein; designed switch direction (-1 OFF switch, 1 ON switch): 1; higher = weaker reporter binding. Summed up:
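Three titration conditions were used: no input, 200 uM small-molecule ligand, and an oligonucleotide input. In each, SNAP-549-labelled MS2 coat protein was raised from 0.7 or 1.5 nM, doubling, to 3 µM over designed RNA switches transcribed on Illumina chips by stalled E. coli RNA polymerase. Curve fits of normalised cluster fluorescence gave values whose per-design median over clusters is the apparent KD.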

Setting [1] is: Eterna round: R95, input ligand: FMN 200 uM.
Where [2] appears, read: Eterna round: R95, input ligand: microRNA oligo, concentration not stated.
The mark [3] stands for this setting: Eterna round: R95, input ligand: none.
The mark [4] stands for this setting: input ligand: microRNA oligo, concentration not stated.

Turning to “UGUAAACAUGAGGAUCACCCAUGUAAUAAUAUGGGAGGAUAUGGGAAUUAAUUAAUUAAACCAGAAGGCCUAAUGU [Mat - Same State 1 - D88] (puzzle: Same State 1)”, the “apparent KD of MS2 coat protein” value under setting [1] was 0.0309 µM, the “apparent KD of MS2 coat protein” value under setting [2] was determined as 0.388 µM and the “apparent KD of MS2 coat protein” value under setting [3] was 0.28 µM.

Consider “GUUAAACAUGAGGAUCACCCAUGUAAUAAUAUGGGAGGAUAUCAGAAAUUAUGUAUUAAAUGAGAAGGCCUAAUUG [Mat - Same State 1 - Mod of Eli - D80] (puzzle: Same State 1)”, for which the “apparent KD of MS2 coat protein” value was found to be 0.125 µM under setting [1], 0.585 µM under setting [2] and 0.769 µM under setting [3].

“ACGCAGCUGGGUGAGGAUAUUGGUGGUACAACAUGAGGAUCACCCAUGUCCGAAGCUCGGACCCUCGAGAAGGCGCCCGGCUGCG [Soinraesar Omei Mod 5] (puzzle: Same State 2)”: the “apparent KD of MS2 coat protein” value is 0.122 µM under setting [1], 0.0172 µM under setting [2] and 0.062 µM under setting [3].

Consider “AAGUUAAGCUUUUUGUUCUGCCUAUUCCAACAUGAGGAUCACCCAUGUAGUCUGACGAUUGUGUGUGUAGUUGAGAU [JR_SHM208A_Sub028] (puzzle: Sensor for hsa-mir-208a)”, for which the “apparent KD of MS2 coat protein” value runs as follows: under setting [1], 0.0518 µM; under setting [2], 0.0635 µM; under setting [3], 0.0579 µM.

Turning to “AGUAGUUUAACAUGAGGAUCACCCAUGUAUUUUUCUGUAACCUAGGAUAUGGGCGUUGUAUUUAUCCAGAAGGAGGAUCGUUUA [JR_SSNG3_Sub048] (Eterna round: R96, puzzle: Same State NG 3)”, the “apparent KD of MS2 coat protein” value (input ligand: FMN 200 uM) was determined as 0.0303 µM, the “apparent KD of MS2 coat protein” value under setting [4] worked out at 0.0283 µM and the “apparent KD of MS2 coat protein” value (input ligand: none) was 0.0311 µM.

In the case of “GUAGAUAUAACGGAGGAUAUUCAAUGAGAGACAUGAGGAUCACCCAUGUGAGAGUGAGAUGAUAGGAAGAAGGCUGAGAGAGAUG [Altered State 2-7 - Jieux - Same State 2] (puzzle: Same State 2)”, the “apparent KD of MS2 coat protein” value reads like this: under setting [1], 0.0942 µM; under setting [2], 0.0703 µM; under setting [3], 0.0647 µM.

Consider “UGUUGUAUUACAGGAUAUCUAGUGUUUUUAUUUAGAGAAGGGUAUUCACAUGAGGAUCACCCAUGUAUAUACGAGGAAGUUGUG [JMF's solution 34] (Eterna round: R96, puzzle: Same State NG 1)”, for which the “apparent KD of MS2 coat protein” value under setting [4] was found to be 0.043 µM.

In the case of “UUUGCAUGACGAGGAUAUCAUUUAUAUCUUGAUUGAGAAGGCGUUCUUUUUUUUACCUAACAUGAGGAUCACCCAUGUGACAGU [JR_SSNG1_Sub050] (Eterna round: R96, puzzle: Same State NG 1)”, the “apparent KD of MS2 coat protein” value runs as follows: (input ligand: FMN 200 uM) 0.0141 µM; under setting [4], 0.0134 µM; (input ligand: none) 0.0161 µM.

Turning to “AUGAUAUACUCAGGAUAUAUGCGAGACGACGAGAUAGAAGGGAGAAGAUAAUGACGUACAUGAGGAUCACCCAUGUGAGGAUCA [Same State NG1 S4] (Eterna round: R96, puzzle: Same State NG 1)”, the “apparent KD of MS2 coat protein” value is 0.0269 µM (input ligand: FMN 200 uM), 0.0206 µM under setting [4] and 0.034 µM (input ligand: none).

As to “UACUAUCUAUCUCAGGAUAUCAUGUCAAAGACAUGAGGAUCACCCAUGUACCAGGAAACUGGUUAUGAGAAGGGAGAUAGAUAGU [Mat - Same State 2 - Mod - D40] (puzzle: Same State 2)”, the “apparent KD of MS2 coat protein” value by setting is: under setting [1], 0.16 µM; under setting [2], 0.0532 µM; under setting [3], 0.249 µM.

As for “GCUCGGAUGAUGGCCCACAUGAGGAUCACCCAUGUGAGUGGGCAGGAUAUCUAGAUUAAGGAUGUAGAGAAGGGCCUACCGAGC [SameState NG3 #34] (Eterna round: R96, puzzle: Same State NG 3)”, the “apparent KD of MS2 coat protein” value was 2.07 µM (input ligand: FMN 200 uM), 0.1 µM under setting [4] and 0.759 µM (input ligand: none).

With “GUUACAUGAGGAUCACCCAUGUAUGUGUGGGAGUAAGUGUCUUAGGAUAUCUGUUAUUGAAUUUAAGAGAAGGAAGAUUGUUGU [JMF's solution 37] (Eterna round: R96, puzzle: Same State NG 3)”, the “apparent KD of MS2 coat protein” value by setting is: (input ligand: FMN 200 uM) 0.102 µM; under setting [4], 0.0595 µM; (input ligand: none) 0.1 µM.

As to “AGAGGAAGGGCAGGAUAUACGACGGAGGACGAGGUAGAAGGGUCCAUGUGAUAACAUGAGGAUCACCCAUGUACCGCGCGACGA [AK SSNG1-V2-18] (Eterna round: R96, puzzle: Same State NG 1)”, the “apparent KD of MS2 coat protein” value (input ligand: FMN 200 uM) was found to be 0.147 µM, the “apparent KD of MS2 coat protein” value under setting [4] was 0.0431 µM and the “apparent KD of MS2 coat protein” value (input ligand: none) is 0.832 µM.

For the sequence “GUAGGACAUGAGGAUCACCCAUGUGGGAGGGAACGAGGAUAUGUGAUUAGCGAGGAGAGGACAGAAGGCGUGGUAG [JR_SS1_Sub024] (puzzle: Same State 1)”, the “apparent KD of MS2 coat protein” value reads like this: under setting [1], 0.0552 µM; under setting [2], 0.0354 µM; under setting [3], 0.0508 µM.

On to “GAGUAGUUGAAAGGAUAUUGAUUGUUAUAGGAUCAAGAAGGUUCUAACAUGAGGAUCACCCAUGUAGGACUAUUCCUGUGUAUC [Parity 83 - Jieux - Same State NG 1] (Eterna round: R96, puzzle: Same State NG 1)”, for which the “apparent KD of MS2 coat protein” value is, setting by setting: (input ligand: FMN 200 uM) 0.011 µM; under setting [4], 0.00878 µM; (input ligand: none) 0.0125 µM.

For the sequence “UAAUUAAGUCAAGGAUAUCACGUCGAUUAGACGUGAGAAGGUGACCAAUACAUGAGGAUCACCCAUGUAAUACAUGAAUAAUUA [SSNG1/12-B2] (Eterna round: R96, puzzle: Same State NG 1)”, the “apparent KD of MS2 coat protein” value (input ligand: FMN 200 uM) came out at 0.0227 µM, the “apparent KD of MS2 coat protein” value under setting [4] turned out to be 0.0532 µM and the “apparent KD of MS2 coat protein” value (input ligand: none) was found to be 0.0564 µM.

For the sequence “UGAAUACAUGAGGAUCACCCAUGUCAACGUAGUCGAGGAUAUGGGCAGCCGUGAGGCGUACCAGAAGGCGAAGAGG [Mat - Same State 1 - Mod of JL - D4] (puzzle: Same State 1)”, the “apparent KD of MS2 coat protein” value stood at 0.0404 µM under setting [1], 0.0888 µM under setting [2] and 0.132 µM under setting [3].

Consider “UGGCUCAGACGAGGAUAUGAUCAUGGCGCUUCGGCGCAUACAUGAGGAUCACCCAUGUAAAGUGAUCAGAAGGCGUCUGAGCCU [SSNG2/7-A3] (Eterna round: R96, puzzle: Same State NG 2)”, for which the “apparent KD of MS2 coat protein” value was 0.0148 µM (input ligand: FMN 200 uM), 0.0111 µM under setting [4] and 0.015 µM (input ligand: none).

Turning to “GGAUGAUUGACAGGAUAUCAUUUGUAAAUUCGUUGAGAAGGGUCGAUUACUUACACGACGUGUUACAUGAGGAUCACCCAUGUU [SameState NG1 #4] (Eterna round: R96, puzzle: Same State NG 1)”, the “apparent KD of MS2 coat protein” value runs as follows: (input ligand: FMN 200 uM) 0.117 µM; under setting [4], 0.101 µM; (input ligand: none) 0.185 µM.

For the sequence “GUUAUACAUGAGGAUCACCCAUGUCAAUGUAGUCGAGGAUAUGGGUAGCCAUGAGGCGUACUAGAAGGCGAGGAGU [JL-ss1-3.19 ViennaUCT mod] (puzzle: Same State 1)”, the “apparent KD of MS2 coat protein” value was 0.13 µM under setting [1], 0.0688 µM under setting [2] and 0.0815 µM under setting [3].
